Measurements reported in patent US20210095028A1 (NANJING LEGEND BIOTECH, published 2021).

T1: human TIGIT over-expressed on cells (human, UniProt Q495A1 22-244)
T1 construct: also called CHO-K1/human TIGIT cells; CHO cells expressing human TIGIT
T1 sequence: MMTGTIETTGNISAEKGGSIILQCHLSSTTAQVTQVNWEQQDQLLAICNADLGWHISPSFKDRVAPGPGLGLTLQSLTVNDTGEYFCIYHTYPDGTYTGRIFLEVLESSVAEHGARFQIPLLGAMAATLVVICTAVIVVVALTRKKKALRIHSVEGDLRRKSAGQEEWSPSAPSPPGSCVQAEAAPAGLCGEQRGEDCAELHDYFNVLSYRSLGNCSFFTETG

T2: Human TIGIT protein with HIS tag (human, UniProt Q495A1 22-141)
T2 construct: A soluble analyte is probably only the extracellular part; also called human TIGIT recombinant protein; not shown: HIS tag
T2 sequence: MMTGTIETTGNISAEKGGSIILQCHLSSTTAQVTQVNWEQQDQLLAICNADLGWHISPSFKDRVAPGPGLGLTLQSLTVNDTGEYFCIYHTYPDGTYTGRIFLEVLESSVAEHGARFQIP


Experiments:
[1] = target: T1, human TIGIT over-expressed on cells; assay: competition FACS, CHO cells expressing human TIGIT; competitor PVR recombinant protein
Protocol: The mixture was equilibrated for 30 minutes at room temperature, and washed three times with FACS buffer (PBS containing 1% BSA). PE/Cy5 Streptavidin secondary antibody was then added to the mixtures and incubated for 15 minutes at room temperature. Subsequently, the cells were washed with FACS buffer and analyzed by flow cytometry. Data was analyzed with PRISM™ (GraphPad Software, San Diego, Calif.) using non-linear regression, and IC₅₀ values were calculated (FIGS. 4A-4B and Table 6).

[2] = target: T1, human TIGIT over-expressed on cells; assay: FACS, CHO-K1 cells over-expressing human TIGIT
Protocol: The mixture was equilibrated for 30 minutes at room temperature and washed three times with FACS buffer (PBS containing 1% BSA). iFluor labeled goat anti-mouse IgG as the secondary antibody was added and incubated at room temperature for 45 min. Finally, the cells were washed 3 time with PBS, and the signal was read by FACS BD Calibur. Data was analyzed with PRISM™ (GraphPad Software, San Diego, Calif.) using non-linear regression and EC₅₀ values were calculated.

[3] = target: T2, Human TIGIT protein with HIS tag; assay: SPR Biacore T200; antibody Fc-captured, TIGIT-His analyte
Protocol: Binding kinetics of mouse anti-human TIGIT monoclonal antibodies to human TIGIT were determined using a Surface Plasmon Resonance (SPR) biosensor, BIACORE® T200 (GE Healthcare; Little Chalfont, United Kingdom). […] Each mouse anti-human TIGIT monoclonal antibody was immobilized on the sensor chip through the Fc capture method. Human TIGIT protein with HIS tag was used as the analyte. The dissociation (kd) and association (kₐ) rate constants were obtained using the BIACORE® T200 evaluation software. The apparent equilibrium dissociation constants (KD) were calculated from the ratio of kd over kₐ.

Binder | Bottom (best-fit) [1] | IC50 [1] | Top (best-fit) [1] | Bottom (best-fit) [2] | EC50 [2] | Top (best-fit) [2] | Kd [3] | koff [3] | kon [3]
11D8E12A4 (antibody, V domains shown, Mouse monoclonal antibody; also called mouse anti-human TIGIT monoclonal antibody 11D8E12A4) VH: EVLLQQSGPELVKPGASVKIPCKASGYTFTDYNMDWVKQSHGKSLEWIGDINPNNGGTIYNQKFKGKATLTVDKSSSTAYMELRSLTSEDTAVYYCARRWLLLVYTMDYWGQGTSVTVSS VL: QIVLTQSPAIMSASPGEKVTISCSASSSVSYMYWYQQKPGSSPKPWIYRTSNLASGVPARFSGSGSGTSYSLTISSMEAEDAATYYCHQYHNYPPTFGGGTKLEIK | 21.2 | 73.5 nM | 108 | 8.3 | 16.3 nM | 159 | 14 nM | 0.0087 s⁻¹ | 640000 M⁻¹ s⁻¹
16F10H12C11 (antibody, V domains shown, Mouse monoclonal antibody; also called mouse anti-human TIGIT monoclonal antibody 16F10H12C11) VH: EVLLQQSGPELVKPGASVKIPCKASGYTFTDYNIDWVKQSHGKSLEWIGDINPNTGGTIYNQKFKGKATLTVDKSSSTAYMELRSLTSEDTAVYYCARRWLLLVYAVDYWGQGTSVTVSS VL: QIVLTQSPAIMSASPGEKVTISCSASSSVTYMYWYQQKAGSSPKPWIYRTSNLASGVPARFGGSGSGTSYSLTISSMEAEDAATYYCQQYHSFPPTFGGGTKLEIK |  |  |  | 6.83 | 11.2 nM | 188 | 18 nM | 1.2 s⁻¹ | 6.7e+07 M⁻¹ s⁻¹
8F2D8E7 (antibody, V domains shown, Mouse monoclonal antibody; also called mouse anti-human TIGIT monoclonal antibody 8F2D8E7) VH: QVQLQQSGAELVKPGASVKLSCKTSGYTFTSYWIQWIKQRPGQGLGWIGEIFPGTGTTYYNEKFKGKATLTIDTSSSTAYMQLSSLTSEDSAVYSCARSRDGKVVDYWGQGTSVTVSS VL: DVQMTQTTSSLSASLGDRVTISCRASQDISNFLNWYQQRPDGTVKLLIYYTSKLHSGVPSRFSGSGSGTDYSLTIRNLEKEDIATYFCQQGNTPPYTFGGGTKLEIK | 11.2 | 0.9 nM | 131 | 12.9 | 1.28 nM | 276 | 2.6 nM | 0.0033 s⁻¹ | 1.3e+06 M⁻¹ s⁻¹

Next, values leading:

Bottom (best-fit) [1] | IC50 [1] | Top (best-fit) [1] | Bottom (best-fit) [2] | EC50 [2] | Top (best-fit) [2] | Kd [3] | koff [3] | kon [3] | Binder
19.6 | 0.7 nM | 113 | 11 | 0.96 nM | 263 | 5.2 nM | 0.0044 s⁻¹ | 860000 M⁻¹ s⁻¹ | 70A11A8E6 (antibody, V domains shown, Mouse monoclonal antibody; also called mouse anti-human TIGIT monoclonal antibody 70A11A8E6) VH: DVQLQESGPGLVKPSQSLSLTCTVTGYSITSDYAWNWIRQFPGNKLEWMGYIIYSGSTSYNPSLKSRISITRDTSKNQFFLQLNSVTTEDTATYYCARGWFRRPDYWGQGTTLTVSS VL: DIVMTQSHEFMSTSLGDRVSITCKASQDVSTAVAWHQQKPGQSPKQLIYSASYRYTGVPDRFTGSGSGTDFTFTISNMQAEDLAVYYCQQHYSVPLTFGAGTKLELK
64.6 | 1.6 nM | 132 | 9.18 | 3.15 nM | 346 | 11 nM | 0.0088 s⁻¹ | 840000 M⁻¹ s⁻¹ | 48B5G4E12 (antibody, V domains shown, Mouse monoclonal antibody; also called mouse anti-human TIGIT monoclonal antibody 48B5G4E12) VH: QVQLQQPGAELVKPGASVKMSCKASGYTFTSYNMHWVKQTPGQGLEWIGGIYPGNGATSYNQKFKGKATLTADKSSSTAYMQLSSLTSEDSAVYYCARSGLRAMDYWGQGTSVTVSS VL: QIVLTQSPAIMSASPGEKVTMTCSASSSVSYMYWYQQKTGSSPRLLIYDTSNLASGVPVRFSGSGSGTSYSLTISRMEAEDAATYYCQQWSSYPYTFGGGTKLEIK
